Reference: patent publication US20240093310A1 (Dana-Farber, published 2024)

Experiments:
[1] = target: T1, C-RAF S257P resistance mutant (human, UniProt P04049 1-648); assay: C-RAF immunoprecipitation, 14-3-3ζ immunoblot, 293T and A375 cells, no RAF inhibitor (FIG. 7A, 7B)
T1 construct: His/V5- or Flag-tagged in the homodimerization assays

[2] = target: T2, C-RAF P261T resistance mutant (human, UniProt P04049 1-648); assay: as above
T2 construct: His/V5- or Flag-tagged in the homodimerization assays

[3] = target: T3, C-RAF G361A resistance mutant (human, UniProt P04049 1-648); assay: as above
T3 construct: His/V5- or Flag-tagged in the homodimerization assays; also called 361G>A

[4] = target: T4, wild-type human C-RAF (human, UniProt P04049 1-648); assay: C-RAF immunoprecipitation, 14-3-3ζ immunoblot, A375 cells with and without 2 µM vemurafenib (FIG. 7B)
T4 construct: In the homodimerization assays the copies carried a His/V5 tag or a Flag tag; also called WT-C-RAF; C-RAF (WT)

Measured: binding result

B1: 14-3-3 ζ (other, UniProt P63104 1-245, looked up)
chain: MDKNELVQKAKLAEQAERYDDMAACMKSVTEQGAELSNEERNLLSVAYKNVVGARRSSWRVVSSIEQKTEGAEKKQQMAREYREKIETELRDICNDVLSLLEKFLIPNASQAESKVFYLKMKGDYYRYLAEVAAGDDKKGIVDQSQQAYQEAFEISKKEMQPTHPIRLGLALNFSVFYYEILNSPEKACSLAKTAFDEAIAELDTLSEESYKDSTLIMQLLRDNLTLWTSDTQGDEAEAGEGGEN
notes: The Western blot methods list a 14-3-3ζ antibody (Cell Signaling)
binds: [1] | [2] | [3] | [4]
